The source of these data is publication PMC9884259 (The Journal of Membrane Biology, 2022).

First the molecules themselves.
B1: Streptolysin O (SLO), wildtype, residues L78-K571, His-tagged (natural protein)
chain: LAPKEMPLESAEKEEKKSEDKKKSEEDHTEEINDKIYSLNYNELEVLAKNGETIENFVPKEGVKKADKFIVIERKKKNINTTPVDISIIDSVTDRTYPAALQLANKGFTENKPDAVVTKRNPQKIHIDLPGMGDKATVEVNDPTYANVSTAIDNLVNQWHDNYSGGNTLPARTQYTESMVYSKSQIEAALNVNSKILDGTLGIDFKSISKGEKKVMIAAYKQIFYTVSANLPNNPADVFDKSVTFKELQRKGVSNEAPPLFVSNVAYGRTVFVKLETSSKSNDVEAAFSAALKGTDVKTNGKYSDILENSSFTAVVLGGDAAEHNKVVTKDFDVIRNVIKDNATFSRKNPAYPISYTSVFLKNNKIAGVNNRTEYVETTSTEYTSGKINLSHQGAYVAQYEILWDEINYDDKGKEVITKRRWDNNWYSKTSPFSTVIPLGANSRNIRIMARECTGLAWEWWRKVIDERDVKLSKEINVNISGSTLSPYGSITYK

The data set “high-speed AFM” concerns the molecule itself. Description: high-speed AFM.
The target in data set [1] is B1. The experiment in a line: high-speed AFM. The conditions noted are these: both partners purified.

For B1, the binding result in “high-speed AFM” is “binds”.

B2: SLO (C/A)-SS mutant ([change], [change], [change]), residues L78-K571, His-tagged (natural protein)
chain: LAPKEMPLESAEKEEKKSEDKKKSEEDHTEEINDKIYSLNYNELEVLAKNCETIENFVPKEGVKKADKFIVIERKKKNINTTPVDISIIDSVTDRTYPAALQLANKGFTENKPDAVVTKRNPQKIHIDLPGMGDKATVEVNDPTYANVSTAIDNLVNQWHDNYSGGNTLPARTQYTESMVYSKCQIEAALNVNSKILDGTLGIDFKSISKGEKKVMIAAYKQIFYTVSANLPNNPADVFDKSVTFKELQRKGVSNEAPPLFVSNVAYGRTVFVKLETSSKSNDVEAAFSAALKGTDVKTNGKYSDILENSSFTAVVLGGDAAEHNKVVTKDFDVIRNVIKDNATFSRKNPAYPISYTSVFLKNNKIAGVNNRTEYVETTSTEYTSGKINLSHQGAYVAQYEILWDEINYDDKGKEVITKRRWDNNWYSKTSPFSTVIPLGANSRNIRIMAREATGLAWEWWRKVIDERDVKLSKEINVNISGSTLSPYGSITYK
For the molecule B2, the binding result (in data set [1]; in “high-speed AFM”) was “binds” throughout.
